# The DeepSol protein solubility set
# Assay: soluble on expression in E. coli; label from the status in PepcDB or PDB records
row,Sequence,soluble on expression in E. coli
1,MEVSKIRIHDLPEEERPRERLIKNGPESLSNAELLGIVLRTGSREENVISLCSRILMEYNIKQLSLANVSKLMQVNGIGKAKAAQIAAVFELARRLETFVEEPKRKISSPKDVYTLMYPKMREQKKEKFITLYLDTKNQILKEEVVSIGSLNASIVHPREVFKSALMESSASVIMVHNHPSGDPSPSREDIMVTEKLVEGGKLLGIDILDHIIIGDGRYVSLKDEGFVK,not soluble
2,MEVSSVFIFPPKPKDVLTITLTPKVTCVVVDISKDDPEVQFSWFVDDVEVHTAQTQPREEQFNSTFRSVSELPIMHQDWLNGKEFKCRVNSAAFPAPIEKTISKTKGRPKAPQVYTIPPPKEQMAKDKVSLTCMITDFFPEDITVEWQWNGQPAENYKNTQPIMDTDGSYFVYSKLNVQKSNWEAGNTFTCSVLHEGLHNHHTEKSLSHSPGKE,soluble
3,MEVYSKLRAPPSSRMILRLDGRGFHRLTESLDFDRPYDEAFRDLMIRTCLDLMEEFSPSLIYTFSDEINVLLDSVPFAGRVEKLDSVFSGFASSSFTRGALEAGFSPVKPVSFDCRVIPISSDIVPEYFRSRQDESWRNCLNSYAYWTLRREVGARRAAERLRGLKSDSLHDLLFERGVNISRVPAWQRRGVGVYRVPHRVRGYNPIRDEEVSAVRMRVKVDLELPLFTDEFFEGLMRLEHHHHHH,soluble
4,MEWKDIKGYEGHYQVSNTGEVYSIKSGKTLKHQIPKDGYHRIGLFKGGKGKTFQVHRLVAIHFCEGYEEGLVVDHKDGNKDNNLSTNLRWVTQKINVENQMSRGTLNVSKAQQIAKIKNQKPIIVISPDGIEKEYPSTKCACEELGLTRGKVTDVLKGHRIHHKGYTFRYKLNG,soluble
5,MEYEWKPDEQGLQQILQLLKESQSPDTTIQRTVQQKLEQLNQYPDFNNYLIFVLTKLKSEDEPTRSLSGLILKNNVKAHFQNFPNGVTDFIKSECLNNIGDSSPLIRATVGILITTIASKGELQNWPDLLPKLCSLLDSEDYNTCEGAFGALQKICEDSAEILDSDVLDRPLNIMIPKFLQFFKHSSPKIRSHAVACVNQFIISRTQALMLHIDSFTENLFALAGDEEPEVRKNVCRALVMLLEVRMDRLLPHMHNIVEYMLQRTQDQDENVALEACEFWLTLAEQPICKDVLVRHLPKLIPVLVNGMKYSDIDIILLKGDVEEDETIPDSEQDIRPRFHRSRTVAQQHDEDGIEEEDDDDDEIDDDDTISDWNLRKCSAAALDVLANVYRDELLPHILPLLKELLFHHEWVVKESGILVLGAIAEGCMQGMIPYLPELIPHLIQCLSDKKALVRSITCWTLSRYAHWVVSQPPDTYLKPLMTELLKRILDSNKRVQEAACSAFATLEEEACTELVPYLAYILDTLVFAFSKYQHKNLLILYDAIGTLADSVGHHLNKPEYIQMLMPPLIQKWNMLKDEDKDLFPLLECLSSVATALQSGFLPYCEPVYQRCVNLVQKTLAQAMLNNAQPDQYEAPDKDFMIVALDLLSGLAEGLGGNIEQLVARSNILTLMYQCMQDKMPEVRQSSFALLGDLTKACFQHVKPCIADFMPILGTNLNPEFISVCNNATWAIGEISIQMGIEMQPYIPMVLHQLVEIINRPNTPKTLLENTAITIGRLGYVCPQEVAPMLQQFIRPWCTSLRNIRDNEEKDSAFRGICTMISVNPSGVIQDFIFFCDAVASWINPKDDLRDMFCKILHGFKNQVGDENWRRFSDQFPLPLKERLAAFYGV,soluble
6,MEYFNVGKIVNTQGLQGEMRVLSVSDFAEERFKKGSQLALFDDKDRFVQEVTIVSHRKQKHFDIIKFKDMYHINAIEKYKGYTLKVSKDNQGDLQEGEFYYHQIIGMAVYEKDVLIGHVKEILQPGANDVWIVKRQGKRDLLLPYIPPVVLNVDVPNKRVDVELMEGLDDED,not soluble
7,MFAIISVTGADHTGIIAAVATKCADLGVNINNVSQTIMDGYFTMILHVSFDDSATDIATIQESMADVEKDQNLVIRIQSQAIFDAMNII,not soluble
8,MFCDRIRGSLTKDKERIMSSKNYIDVIIDGKIYNIGGFESEAYLQKVASYINNMIAEFKQNENYRVQKVDMQRILLEINIANDYFKAKKQADLLQNDIELKEKEVYDLKHELIVSDSKAETATKELNEALEKIESLEKEIIKLQTELEK,not soluble
9,MFDDKILLITGGTGSFGNAVMKQFLDSNIKEIRIFSRDEKKQDDIRKKYNNSKLKFYIGDVRDSQSVETAMRDVDYVFHAAALKQVPSCEFFPVEAVKTNIIGTENVLQSAIHQNVKKVICLSTDKAAYPINAMGISKAMMEKVFVAKSRNIRSEQTLICGTRYGNVMASRGSVIPLFIDKIKAGEPLTITDPDMTRFLMSLEDAVELVVHAFKHAETGDIMVQKAPSSTVGDLATALLELFEADNAIEIIGTRHGEKKAETLLTREEYAQCEDMGDYFRVPADSRDLNYSNYVETGNEKITQSYEYNSDNTHILTVEEIKEKLLTLEYVRNELNDYKASMR,not soluble
10,MFDGIGFMELLLIGVLGLIVLGPERLPVAVRSVTSWVRAMKRMANSVKEELEQELKIEQLHADLKKAESKGLSNLSPELQESIEQLKQAAQSVNRPYQVQDTPSAQDNQIHNPASQTVSTEASSTSASSAPKSESIQGEDPRSNTKANGLEHHHHHH,soluble
11,MFDLPVETEEQRRNYRIFRKELIQEGFVMIQYSIYVRVCPSREFANRIENRIKKNLPLEGNVRLLCVTEKQYDDMKLLVGSRQTSETAIGTERLIIILEHHHHHH,not soluble
12,MFEFKHIKAFDRAFADNPGPMVVFATPGMLHAGQSLQIFRKWAGNEKNMVIMPGYCVQGTVGHKILSGQRKLEMEGRQVLEVKMQVEYMSFSAHADAKGIMQLVGQAEPESVLLVHGEAKKMEFLKQKIEQELRVNCYMPANGETVTLPTSPSIPVGISLGLLKREMAQGLLPEAKKPRLLHGTLIMKDSNFRLVSSEQALKELGLAEHQLRFTCRVHLHDTRKEQETALRVYSHLKSVLKDHCVQHLPDGSVTVESVLLQAAAPSEDPGTKVLLVSWTYQDEELGSFLTSLLKKGLPQAPS,soluble
13,MFENITAAPADPILGLADLFRADERPGKINLGIGVYKDETGKTPVLTSVKKAEQYLLENETTKNYLGIDGIPEFGRCTQELLFGKGSALINDKRARTAQTPGGTGALRVAADFLAKNTSVKRVWVSNPSWPNHKSVFNSAGLEVREYAYYDAENHTLDFDALINSLNEAQAGDVVLFHGCCHAPTGIDPTLEQWQTLAQLSVEKGWLPLFDFAYQGFARGLEEDAEGLRAFAAMHKELIVASSYSKNFGLYNERVGACTLVAADSETVDRAFSQMKAAILANYSNPPAHGASVVATILSNDALRAIWEQELTDMRQRIQRMRQLFVNTLQEKGANRDFSFIIKQNGMFSFSGLTKEQVLRLREEFGVYAVASGLVNVAGMTPDNMAPLCEAIVAVL,soluble
14,MFERVREDIQSVFHRDPAARNALEVLTCYPGLHAVWLHRLAHGLWTSGWKWLARLVSNFGRWMTGIEIHPGARIGRRFFIDHGMGIVIGETAEIGDDVTLYQGVTLGGTTWNKGKRHPTLGNNVVVGAGAKVLGPFTVGEGAKVGSNAVVTKEVPPGATVVGIPGRIIMREDSEQQAKRQAMAEKLGFDAYGVSQDMPDPVARAIGQLLDHLQAVDGRLEGMCQALTALGSDYCAKDLPVLREEDFAGVKDEDGNPAA,not soluble
15,MFFSNSLHANAAPQHFERIAKILQAKRRAGDFSTCDVKIQLKTGFDMVHSVVICAHSDVFSETFDNQRAPYQPFNMTDFDPDSVRRVFDWMYSGEIDIPETTIADVLAVASYLRVTMLQRQIEQKILNHNGSPIMALNIASARAFSVMDHTMNDLVHGFTEKMTGLGIDEVAKLTANSMIAVMAAVLPMKKKVPLVNMFISWIVCKQPERETINTIIQSLVISDITYDTLYAIRYSLKQYLTNSEIASKSQLTISPSGTIEIKIVPKKESMVSEKSSSLHSVVELPPNQYYRTRSEISAIDKMPDPFVRNLPRTQSASSMIARPRSSGGFPQYFTRSEVEDLQQMTDPFSKSERGMTPTRGPPMGFSSVQCTVKYPGWSKDVMETNKEMYKQCKMNGRYILSEAQTESNAPVFLRPAVGGKVSSSRGALSNLSNSEQNKKYGRGVTQSFSGHSLNDNDPMPKEHDPKVQPSVIISCLSLPTTSPVSVVKPKMTGVKKTDSEIMEINALPSSFNSNSFYTAKTSNTSGHSNDQSAGKSEKSQRSQKSEKSQKLKKPIPQSQYLYPN,not soluble
16,MFGFSNSDISVSSGHTSHLDEVLPQSMYMVDADGRMVRWSPWFRDRIAGFSDAEMASTDFLELIHPEDRALVRQRMRKILDQGVQDSLEVRIFLKGGPAFRWFLLMANRYEYAGHYFITGTGIDIT,not soluble
17,MFHGIPATPGIGAPGNKPELYEEVKLYKNAREREKYDNMAELFAVVKTMQALEKAYIKDCVSPSEYTAACSRLLVQYKAAFRQVQGSEISSIDEFCRKFRLDCPLAMERIKEDRPITIKDDKGNLNRCIADVVSLFITVMDKLRLEIRAMDEIQPDLRELMETMHRMSHLPPDFEGRQTVSQWLQTLSGMSASDELDDSQVRQMLFDLESAYNAFNRFLHALEHHHHHH,not soluble
18,MFKDFFNRTKKKKYLTVQDSKNNDVPAGIMTKCPKCKKIMYTKELAENLNVCFNCDHHIALTAYKRIEAISDEGSFTEFDKGMTSANPLDFPSYLEKIEKDQQKTGLKEAVVTGTAQLDGMKFGVAVMDSRFRMGSMGSVIGEKICRIIDYCTENRLPFILFSASGGARMQEGIISLMQMGKTSVSLKRHSDAGLLYISYLTHPTTGGVSASFASVGDINLSEPKALIGFAGRRVIEQTINEKLPDDFQTAEFLLEHGQLDKVVHRNDMRQTLSEILKIHQEVTK,soluble
19,MFKKVLGLRHWNNNVVKIPPPAAESGANASDVVVDTPEPYERILCQKILMGISTIDIIRNAIIKSCEQLNIEKERINELNEQNDKARSSLKSLVEFITEIGTTSSDIGCRMGDLNTSLTQINACIKEIQKIANQTNLIAINSAIEAARVGDAGRGFSVISKEVKNLSEDVKHSSKSVSTLTSVIKDNTARVSEVLDNQQPVIDNITTNINQIVESIGIVIDKSLSMKSVMQYISTVQFLNIVKVDHVIWKMEVYKLLLNKDINSKITMHDQCRLGKWYYGFEGQQFSNYYSFRSLEAPHKEVHTAGHSALNYFAAGDMNAMSQELDRMERSSNEVVNQLEMLAVDLLKETTL,not soluble
20,MFKNEDAKATGTSEMAPALVAAFGGKENITNLDACITRLRVSVADVSKVDQAGLKKLGAAGVVVAGSGVQAIFGTKSDNLKTEMDEYIRNFGSRSHHHHHH,soluble
21,MFLNGNCLETLKKKEPEGGRRRLSHPGNMGWMRPSQETTPPDRSHHSGFGLFCGDPGPEIEPFSLWVFPQEMVLEIHQLFMDHEYPCHHITSHCTWVAAHWTTSQSCAAWQGCRRACCSTWWKSPAQCTRPTVMSATFETAQEPGPS,not soluble
22,MFLYTETDQNLQACIDACNHCYRTCLRMAMNHCLEAGGKHVEADHLRLMMNCAEICQTSLNFMLSGSRFSPKVCGVCAEICDACAKSCEQLDGMEECVQTCRQCAEHCRKMAALEHHHHHH,soluble
